These are literature values, as cited in publication PMC3565385 (Journal of computer-aided molecular design, 2012).

For this series, the system named is PTH1R. The following applies: ΔΔG = RT ln(Ki mutant/Ki wild-type) from published alanine scanning.

B1: PTH R20A: parathyroid hormone with Arg20 replaced by alanine (peptide, UniProt P01270 32-115, looked up, variant R20A)
Parathyroid hormone: SVSEIQLMHNLGKHLNSMEAVEWLRKKLQDVHNFVALGAPLAPRDAGSQRPRKKEDNVLVESHEKSLGEADKADVNVLTKAKSQ
modifications: Parathyroid hormone
Consider B1, for which the “experimental ΔΔG” value is recorded as 2.96 kcal/mol.
